# Assay results published in article PMC5461540 (2017).
# Read-outs that look alike come from different tables or passages of the source. Where no end group is shown, it is not given here. [ ]: non-standard residue; d: D form. pS = N[C@@H](COP(=O)(O)O)C(=O)O
# T1: MOB3B (human, UniProt Q86TA1 2-216)
# T1 chain: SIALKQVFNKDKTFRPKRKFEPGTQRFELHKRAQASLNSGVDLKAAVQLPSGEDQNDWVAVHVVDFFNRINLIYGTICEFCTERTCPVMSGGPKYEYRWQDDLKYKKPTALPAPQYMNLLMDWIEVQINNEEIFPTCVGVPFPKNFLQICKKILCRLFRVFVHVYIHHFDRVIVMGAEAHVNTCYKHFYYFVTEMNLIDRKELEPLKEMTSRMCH
# T2: MOB3A (human, UniProt Q96BX8 2-217)
# T2 chain: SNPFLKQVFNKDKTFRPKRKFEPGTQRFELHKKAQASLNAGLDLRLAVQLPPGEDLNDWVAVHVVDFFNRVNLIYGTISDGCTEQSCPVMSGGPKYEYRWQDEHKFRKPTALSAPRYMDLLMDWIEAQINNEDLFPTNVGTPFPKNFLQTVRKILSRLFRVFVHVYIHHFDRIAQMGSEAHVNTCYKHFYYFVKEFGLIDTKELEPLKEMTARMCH
# T3: yeast Mob1 (yeast, UniProt P40484 79-314)
# T3 chain: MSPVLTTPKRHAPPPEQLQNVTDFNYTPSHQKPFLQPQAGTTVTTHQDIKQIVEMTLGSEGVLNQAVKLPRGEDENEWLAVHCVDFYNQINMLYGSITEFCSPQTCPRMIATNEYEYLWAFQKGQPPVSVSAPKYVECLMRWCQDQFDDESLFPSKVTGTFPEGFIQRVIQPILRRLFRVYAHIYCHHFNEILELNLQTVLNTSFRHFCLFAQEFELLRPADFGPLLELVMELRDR
# T4: MOB3C (human, UniProt Q70IA8 2-216)
# T4 chain: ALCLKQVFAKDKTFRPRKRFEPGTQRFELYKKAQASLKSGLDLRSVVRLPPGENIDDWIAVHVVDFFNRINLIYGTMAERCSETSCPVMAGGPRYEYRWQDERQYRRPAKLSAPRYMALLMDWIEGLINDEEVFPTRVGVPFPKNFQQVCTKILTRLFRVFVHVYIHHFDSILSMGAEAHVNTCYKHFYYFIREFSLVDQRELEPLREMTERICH
# T5: MOB1B (tags cleaved) (human, UniProt Q7L9L4-2 2-216)
# T5 chain: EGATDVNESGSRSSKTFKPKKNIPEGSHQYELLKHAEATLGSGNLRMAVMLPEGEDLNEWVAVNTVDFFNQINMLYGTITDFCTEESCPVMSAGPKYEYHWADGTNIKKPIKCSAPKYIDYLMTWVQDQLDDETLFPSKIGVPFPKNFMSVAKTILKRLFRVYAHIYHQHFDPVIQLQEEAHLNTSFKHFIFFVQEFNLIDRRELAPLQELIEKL
# T6: FITC labeled MST1 pT329 phosphopeptide (human, UniProt Q13043, phosphothreonine at 329; FITC label (position not given))
# T6 sequence (Q13043 whole entry, looked up): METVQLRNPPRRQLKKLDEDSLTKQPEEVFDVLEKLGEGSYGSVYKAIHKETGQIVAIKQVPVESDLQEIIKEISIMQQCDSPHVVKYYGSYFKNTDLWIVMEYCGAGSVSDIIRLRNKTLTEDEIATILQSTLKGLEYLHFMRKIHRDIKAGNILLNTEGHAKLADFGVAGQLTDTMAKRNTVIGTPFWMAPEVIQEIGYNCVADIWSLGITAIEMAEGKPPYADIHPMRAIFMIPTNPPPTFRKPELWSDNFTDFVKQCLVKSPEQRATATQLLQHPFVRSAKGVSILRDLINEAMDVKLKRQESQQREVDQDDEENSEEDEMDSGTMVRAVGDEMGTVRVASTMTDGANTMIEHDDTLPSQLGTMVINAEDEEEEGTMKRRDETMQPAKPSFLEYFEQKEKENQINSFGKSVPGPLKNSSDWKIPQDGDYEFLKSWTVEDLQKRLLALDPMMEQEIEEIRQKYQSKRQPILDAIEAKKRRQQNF
# T7: FITC labeled MST1 pT340 phosphopeptide (human, UniProt Q13043, phosphothreonine at 340; FITC label (position not given))
# T7 sequence (Q13043 whole entry, looked up): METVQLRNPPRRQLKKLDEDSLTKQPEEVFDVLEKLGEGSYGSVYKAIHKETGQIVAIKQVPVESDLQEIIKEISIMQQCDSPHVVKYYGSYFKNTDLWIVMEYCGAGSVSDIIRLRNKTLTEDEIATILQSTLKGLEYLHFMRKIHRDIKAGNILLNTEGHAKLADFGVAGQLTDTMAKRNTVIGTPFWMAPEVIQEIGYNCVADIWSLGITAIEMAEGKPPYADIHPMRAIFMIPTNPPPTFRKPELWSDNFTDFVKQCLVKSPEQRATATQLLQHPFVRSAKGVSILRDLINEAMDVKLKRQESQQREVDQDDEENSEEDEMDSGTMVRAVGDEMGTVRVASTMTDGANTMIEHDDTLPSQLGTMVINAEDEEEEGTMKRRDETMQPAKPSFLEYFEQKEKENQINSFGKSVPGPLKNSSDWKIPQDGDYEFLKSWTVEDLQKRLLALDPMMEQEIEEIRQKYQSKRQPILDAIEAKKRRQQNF
# T8: FITC labeled MST1 pT380 phosphopeptide (human, UniProt Q13043, phosphothreonine at 380; FITC label (position not given))
# T8 sequence (Q13043 whole entry, looked up): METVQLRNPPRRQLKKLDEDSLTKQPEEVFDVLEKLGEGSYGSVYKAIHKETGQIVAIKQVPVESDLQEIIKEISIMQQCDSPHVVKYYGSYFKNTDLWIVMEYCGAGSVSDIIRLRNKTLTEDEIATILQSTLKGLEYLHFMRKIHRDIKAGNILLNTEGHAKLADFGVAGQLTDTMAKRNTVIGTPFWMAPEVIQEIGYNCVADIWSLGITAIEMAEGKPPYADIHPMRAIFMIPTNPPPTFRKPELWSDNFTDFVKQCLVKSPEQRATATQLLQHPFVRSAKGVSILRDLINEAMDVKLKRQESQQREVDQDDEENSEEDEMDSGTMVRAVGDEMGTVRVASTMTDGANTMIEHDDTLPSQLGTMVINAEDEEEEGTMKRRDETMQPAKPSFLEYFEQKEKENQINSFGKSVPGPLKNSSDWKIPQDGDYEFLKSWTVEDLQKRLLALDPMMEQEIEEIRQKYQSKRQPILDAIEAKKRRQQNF
# B1: MOB1A wild-type (natural protein)
# chain: SFLFSSRSSKTFKPKKNIPEGSHQYELLKHAEATLGSGNLRQAVMLPEGEDLNEWIAVNTVDFFNQINMLYGTITEFCTEASCPVMSAGPRYEYHWADGTNIKKPIKCSAPKYIDYLMTWVQDQLDDETLFPSKIGVPFPKNFMSVAKTILKRLFRVYAHIYHQHFDSVMQLQEEAHLNTSFKHFIFFVQEFNLIDRRELAPLQELIEKLGSKDR
# Legend:
# MOB3B = target: T1, MOB3B; assay: FP
# MOB3A = target: T2, MOB3A; assay: FP
# yeast Mob1 [1] = target: T3, yeast Mob1; assay: FP
# MOB3C = target: T4, MOB3C; assay: FP
# MOB1B (tags cleaved) = target: T5, MOB1B (tags cleaved); assay: FP
# MOB1A wild-type [2] = target: B1; assay: FP
# yeast Mob1 [3] = target: T3, yeast Mob1; assay: FP
# MOB1A wild-type [4] = target: B1; assay: FP
# MST1 pT329/pT340 peptide = assay: FP; doubly phosphorylated pT329/pT340
# [5] = target: T6, FITC labeled MST1 pT329 phosphopeptide; assay: FP
# [6] = target: T7, FITC labeled MST1 pT340 phosphopeptide; assay: FP
# MST1 pT380/pT387 peptide = assay: FP; doubly phosphorylated pT380/pT387
# [7] = target: T6, FITC labeled MST1 pT329 phosphopeptide; assay: FP; remark: listed apart in the source
# [8] = target: T7, FITC labeled MST1 pT340 phosphopeptide; assay: FP; remark: listed apart in the source
# [9] = target: T8, FITC labeled MST1 pT380 phosphopeptide; assay: FP
# [10] = target: T8, FITC labeled MST1 pT380 phosphopeptide; assay: FP; remark: listed apart in the source
binder,measurement,setting,value
"DDTLPSQLGTMVINA (also: phosphothreonine at 367 (place in peptide not given here), FITC label, position not given here) [FITC labeled phosphorylated MST1 T367 peptide]",Kd,MOB3B,2.6 µM
same,Kd,MOB3A,2.9 µM
same,Kd,yeast Mob1 [1],29.3 µM
same,Kd,MOB3C,2.3 µM
same,Kd,MOB1B (tags cleaved),0.78 µM
same,Kd,MOB1A wild-type [2],0.58 µM
same,Kd,yeast Mob1 [3],29 µM
same,Kd,MOB1A wild-type [4],0.8 µM
"VASTMTDGANTMIEH (also: phosphothreonine at 353 (place in peptide not given here), FITC label, position not given here) [FITC labeled phosphorylated MST1 T353 peptide]",Kd,MOB1A wild-type [2],0.31 µM
"YH[pS]VVRYA (also: FITC label, position not given here) [optimized Nud1-like phosphoserine containing peptide (FITC labeled)]",Kd,yeast Mob1 [3],0.4 µM
same,Kd,MOB1A wild-type [4],30 µM
B1,Kd,MST1 pT329/pT340 peptide,49 µM
same,Kd,[5],47 µM
same,Kd,[6],66 µM
same,Kd,MST1 pT380/pT387 peptide,95 µM
same,Kd,[7],46.5 µM
same,Kd,[8],66.1 µM
same,Kd,[9],185 µM
same,Kd,[10],186 µM
